Results: patent publication US10428342B2, “P-coumaroyl-CoA:monolignol transferase” (Wisconsin Alumni Research Foundation, priority 2011, dated 2019)
Entries after “also recorded” stand apart in the source; their conditions may differ. One block for each molecule: values may come before it.

How the values were obtained:
[1] = biological target: T1, OsPMT (Oryza sativa subsp. japonica, UniProt Q5JNT2); assay: OsPMT kinetic assay (CoASH release detected with DTNB at A412); format: biochemical; settings: for Substrate quality as acyl donor for OsPMT: tested acyl donors, in words
T1 construct: 6xHis (N); made in house; host or cells: E. coli BL21
T1 sequence (Q5JNT2 1-439): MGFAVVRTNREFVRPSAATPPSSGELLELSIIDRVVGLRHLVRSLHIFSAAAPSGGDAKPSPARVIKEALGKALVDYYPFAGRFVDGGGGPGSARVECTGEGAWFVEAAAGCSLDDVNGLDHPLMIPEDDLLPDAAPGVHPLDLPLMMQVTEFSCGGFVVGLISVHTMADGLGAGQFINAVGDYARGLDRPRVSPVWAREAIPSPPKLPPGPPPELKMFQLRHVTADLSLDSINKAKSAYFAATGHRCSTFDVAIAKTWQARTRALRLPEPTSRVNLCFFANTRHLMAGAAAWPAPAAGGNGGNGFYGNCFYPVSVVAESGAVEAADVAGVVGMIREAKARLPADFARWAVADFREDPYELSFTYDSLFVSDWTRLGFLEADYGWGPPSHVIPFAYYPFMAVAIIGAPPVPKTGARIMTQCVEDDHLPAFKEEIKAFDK
Procedure: (§1) Kinetics—Kinetic analyses were performed using an assay modified from Santoro et al. (Anal. Biochem. 354: 70-77 (2006)). The standard 100 μL reaction mixture contained 50 mM sodium phosphate pH 6, 2 mM 5,5′-dithiobis-(2-nitrobenzoic acid) (DTNB), 0.01-1 mM CoA thioester substrate, and 0.005-1.0 mM monolignol alcohol substrate and initiated by adding 100 ng of purified OsPMT protein in 1×BSA (NEB). The CoA thioester substrates included p-coumaroyl-CoA 2a and caffeoyl-CoA 2b, and the monolignol substrates included sinapyl alcohol 1S and p-coumaryl alcohol 1H. Enzyme activity was measured as an increase in CoASH, detected with DTNB at A412, which is released as a result of monolignol conjugate synthesis (id.). The absorbance was measured every three min. for 40 min on a Spectramax Plus microplate reader using Softmax Pro 5.3 (Molecular Devices). The reactions were stopped by adding hydrochloric acid to a concentration of 100 mM, and then solubilized by adding methanol to 50%. Aliquots of 10 μL from each assay were analyzed via UPLC to verify product production. A standard curve was created for each CoA thioester from triplicate assays of five concentrations from 50 nM to 1 mM of coenzyme-A. Each reaction contained the same buffer and DTNB concentrations as the kinetic assays, along with 0.5 mM of a CoA thioester (p-coumaroyl-CoA 2a, caffeoyl-CoA 2b, or feruloyl-CoA 2c). The equation derived from fitting this standard curve was used to calculate the quantity (moles) of product synthesized in the assay. Kinetic parameters, Vmax and Km, were calculated using a nonlinear regression by entering the reaction rate and substrate concentration into the program R64, version 2.12.0 (Team, R. D. C., R: A language and environment for statistical computing, R Foundation for Statistical Computing, Vienna, Austria (2010).

[2] = tested on: feruloyl-CoA:monolignol transferase (FMT); assay: FMT enzymatic assay (UPLC detection of product); format: biochemical, Angelica sinensis; settings: for Product formed by FMT from CoA thioester: CoA thioester as acyl donor, coniferyl alcohol as acceptor; for FMT activity with monolignol: monolignol as acyl acceptor, feruloyl-CoA as donor
Procedure: The FMT activity assay contained 100 mM MOPS pH 6.8, 1 mM dithiothreitol (DTT), 1 mM feruloyl-CoA, 1 mM coniferyl alcohol, 3.9 μg of purified FMT protein and deionized water to a volume of 50 μL. After a 30-minute incubation, 1 μL of 10 M hydrochloric acid was added to stop the reaction. Because the product synthesized in the reaction, coniferyl ferulate (CAFA), is insoluble, 50 μL of methanol was added to solubilize the CAFA. Prior to UPLC, protein and insoluble material were removed by filtering through an Amicon Ultracel 10K membrane filter (Millipore). The flow-through was analyzed using an Acquity Ultra Performance LC with an Acquity UPLC BEH C18 1.7 μm 2.1×100 mm column and the Acquity Console and Empower 2 Software, all from Waters Corporation. The solvents used in this method were solvent A, 0.1% trifluoroacetic acid, and solvent B, 100% acetonitrile. Samples were analyzed using the following gradient conditions, 13% B, for 5 minutes, 1 minute linear gradient to 42% B, held for 4 minutes, 1 minute linear gradient to 100% B, held for 1 minutes and 3 minutes at 13% B with a flow rate of 0.3 ml/minute. This method was then used to analyze a 10 μL injection of each assay reaction; standards for each of the substrates along with chemically synthesized CAFA were used to determine retention times for each compound. Purified recombinant enzyme was assayed for FMT activity using a reaction mixture containing 2 mM coniferyl alcohol, […], 100 mM HEPES pH 7.4 and 1 mM DTT. The second most abundant BAHD acyltransferase gene when incubated with Coniferyl alcohol and feruloyl-CoA produced a compound with the retention time of authentic coniferyl ferulate (CAFA) (FIG. 2). […] The addition of methanol to 50% after stopping the enzyme with acid was required to analyze the product by UPLC. The insolubility of the product made partial purification easy as the product was separated from the substrates by centrifugation.

[3] = Solubility observed in aqueous enzyme assay mixtures; format: physicochemical; settings: aqueous assay mixture, in words
Procedure: The FMT activity assay contained 100 mM MOPS pH 6.8, 1 mM dithiothreitol (DTT), 1 mM feruloyl-CoA, 1 mM coniferyl alcohol, 3.9 μg of purified FMT protein and deionized water to a volume of 50 μL. After a 30-minute incubation, 1 μL of 10 M hydrochloric acid was added to stop the reaction. Because the product synthesized in the reaction, coniferyl ferulate (CAFA), is insoluble, 50 μL of methanol was added to solubilize the CAFA. Prior to UPLC, protein and insoluble material were removed by filtering through an Amicon Ultracel 10K membrane filter (Millipore). The flow-through was analyzed using an Acquity Ultra Performance LC with an Acquity UPLC BEH C18 1.7 μm 2.1×100 mm column and the Acquity Console and Empower 2 Software, all from Waters Corporation. The solvents used in this method were solvent A, 0.1% trifluoroacetic acid, and solvent B, 100% acetonitrile. Samples were analyzed using the following gradient conditions, 13% B, for 5 minutes, 1 minute linear gradient to 42% B, held for 4 minutes, 1 minute linear gradient to 100% B, held for 1 minutes and 3 minutes at 13% B with a flow rate of 0.3 ml/minute. This method was then used to analyze a 10 μL injection of each assay reaction; standards for each of the substrates along with chemically synthesized CAFA were used to determine retention times for each compound. […]

[4] = substrate: CC(C)(COP(=O)(O)OP(=O)(O)OC[C@H]1O[C@@H](n2cnc3c(N)ncnc32)[C@H](O)[C@@H]1OP(=O)(O)O)[C@@H](O)C(=O)NCCC(=O)NCCSC(=O)/C=C/c1ccc(O)c(O)c1; assay: OsPMT kinetic assay (CoASH release detected with DTNB at A412); format: biochemical, Oryza sativa; settings: other: varying substrate, pH 6.0
Procedure: as §1

[5] = substrate: CC(C)(COP(=O)(O)OP(=O)(O)OC[C@H]1O[C@@H](n2cnc3c(N)ncnc32)[C@H](O)[C@@H]1OP(=O)(O)O)[C@@H](O)C(=O)NCCC(=O)NCCSC(=O)/C=C/c1ccc(O)cc1; assay: as above; format: biochemical, Oryza sativa; settings: other: varying substrate, pH 6.0
Procedure: as §1

[6] = substrate: COc1cc(/C=C/CO)cc(OC)c1O; assay: as above; format: biochemical, Oryza sativa; settings: other: varying substrate, pH 6.0
Procedure: as §1

[7] = substrate: OC/C=C/c1ccc(O)cc1; assay: as above; format: biochemical, Oryza sativa; settings: other: varying substrate, pH 6.0
Procedure: as §1

[8] = saturating substrate p-coumaryl alcohol 1H
[9] = saturating substrate sinapyl alcohol 1S
[10] = saturating substrate caffeoyl-CoA 2b
[11] = saturating substrate p-coumaroyl-CoA 2a

Substrate quality as acyl donor for OsPMT [1]: poor substrate
Product formed by FMT from CoA thioester [2]: substantial product
Molecule: COc1cc(/C=C/C(=O)SCCNC(=O)CCNC(=O)[C@H](O)C(C)(C)COP(=O)(O)OP(=O)(O)OC[C@H]2O[C@@H](n3cnc4c(N)ncnc43)[C@H](O)[C@@H]2OP(=O)(O)O)ccc1O [feruloyl-CoA 2c, feruloyl-CoA]

FMT activity with monolignol [2]: active
Molecule: COc1cc(/C=C/CO)ccc1O [coniferyl alcohol 1G, coniferyl alcohol]

FMT activity with monolignol [2]: active
Molecule: COc1cc(/C=C/CO)cc(OC)c1O [sinapyl alcohol 1S, sinapyl alcohol]

Solubility [3]: limited solubility
Molecule: OC/C=C/c1ccc(O)c(O)c1 [caffeyl alcohol 1C, caffeyl alcohol]

Maximum reaction rate relative to caffeoyl-CoA 2b ([1]; acyl donor compared with caffeoyl-CoA 2b): at least 5 fold
Substrate quality as acyl donor for OsPMT [1]: good substrates
Product formed by FMT from CoA thioester [2]: very little product
Molecule: CC(C)(COP(=O)(O)OP(=O)(O)OC[C@H]1O[C@@H](n2cnc3c(N)ncnc32)[C@H](O)[C@@H]1OP(=O)(O)O)[C@@H](O)C(=O)NCCC(=O)NCCSC(=O)/C=C/c1ccc(O)cc1 [p-coumaroyl-CoA 2a, p-coumaroyl-CoA]

Synthetic rate relative to sinapyl alcohol 1S ([1]; acyl acceptor compared with sinapyl alcohol 1S): 6 times
FMT activity with monolignol [2]: active
Molecule: OC/C=C/c1ccc(O)cc1 [p-coumaryl alcohol 1H, p-coumaryl alcohol]

Molecule: COc1cc(/C=C/COC(=O)/C=C/c2ccc(O)c(OC)c2)ccc1O [coniferyl ferulate]
Solubility [3]: mostly insoluble in water; also recorded: partially insoluble

Substrate quality as acyl donor for OsPMT [1]: good substrates
Product formed by FMT from CoA thioester [2]: very little product
Molecule: CC(C)(COP(=O)(O)OP(=O)(O)OC[C@H]1O[C@@H](n2cnc3c(N)ncnc32)[C@H](O)[C@@H]1OP(=O)(O)O)[C@@H](O)C(=O)NCCC(=O)NCCSC(=O)/C=C/c1ccc(O)c(O)c1 [caffeoyl-CoA 2b, caffeoyl-CoA]

B1: OsPMT (Oryza sativa Japonica Group) (protein)
chain: T1 sequence (Q5JNT2 1-439)
notes: 6xHis (N); made in house; host or cells: E. coli BL21
Km [4, 8]: 92 ± 11 µM
Vmax [4, 8]: 0.515 µmol/min/mg
kcat [4, 8]: 0.41 s⁻¹
Km [4, 9]: 75 ± 5 µM
Vmax [4, 9]: 0.45 µmol/min/mg
kcat [4, 9]: 0.36 s⁻¹
Km [5, 8]: 281 ± 62 µM
Vmax [5, 8]: 3.69 µmol/min/mg
kcat [5, 8]: 2.93 s⁻¹
Km [5, 9]: 105 ± 12 µM
Vmax [5, 9]: 0.75 µmol/min/mg
kcat [5, 9]: 0.6 s⁻¹
Km [6, 10]: 15 ± 2 µM
Vmax [6, 10]: 0.486 µmol/min/mg
kcat [6, 10]: 0.39 s⁻¹
Km [6, 11]: 35 ± 5 µM
Vmax [6, 11]: 0.648 µmol/min/mg
kcat [6, 11]: 0.51 s⁻¹
Km [7, 10]: 27 ± 6 µM
Vmax [7, 10]: 0.355 µmol/min/mg
kcat [7, 10]: 0.28 s⁻¹
Km [7, 11]: 141 ± 14 µM
Vmax [7, 11]: 3.25 µmol/min/mg
kcat [7, 11]: 2.58 s⁻¹
